The source of these data is article doi:10.1101/2024.10.11.617910 (bioRxiv, 2024).

This test addresses beta-amyloid 42 peptide (UniProt P05067). In words: SiMoA.

B1: Donanemab (antibody, V domains shown)
VH: QVQLVQSGAEVKKPGSSVKVSCKASGYDFTRYYINWVRQAPGQGLEWMGWINPGSGNTKYNEKFKGRVTITADESTSTAYMELSSLRSEDTAVYYCAREGITVYWGQGTTVTVSS
VL: DIVMTQTPLSLSVTPGQPASISCKSSQSLLYSRGKTYLNWLLQKPGQSPQLLIYAVSKLDSGVPDRFSGSGSGTDFTLKISRVEAEDVGVYYCVQGTHYPFTFGQGTKLEIK
B1: the binding result is “no binding”.
